According to the domain aggregation screens of Martell et al. (2025):

experiment: soluble fraction after stress (log2 fold change); higher = more stays soluble; pooled small domains, quantitative proteomics; conditions: stress: 75 degC
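Note: 20 min heating vs room temperature control held 20 min.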

| Sequence | soluble fraction (log2) |
| --- | --- |
| HMRMYDVNEYSDEELHRILDLSSPTDSELEARILQMIQKYKYTNGGDNEKMAVFFENIYHHFFD | -1.65 |
| HMRNAAGGIYGWMTLHQVAETVKLTEEEVIAITNLPAGIPRDVSLKNIEGVNDEELRALLEAYLEKQ | -1.34 |
| HMRNISLSLRWHSGEWTADRLKSEVLALPGAMDMTVFEPQSQAYLRVEQGFDTKLLPAGIDVH | -1.31 |
| HMRNNKLRRANKLKTEFENLPHIGKKRAHVLLKAFGSTENLKMTTAQALSEAAKISLKQAEEVLEAVRG | -0.466 |
| HMRNQIRAVITPVPNQERYTVEMTIDDDAGNLLTLQMAAPDRQQAAEFAQRFQKHPEALYHAVLSVLL | -0.214 |
| HMRNSFTVENTGERLDVFLTGQMPEFSRSHIQKLIASGQAWVNGVNRKGNFKLKPHDVVELEVPEPE | 0.381 |
| HMRNSVQREWIYDYIQRQDAHLSADEIYEGLLKEGKNISLATVYRNLSILVDEYKIASVMTDSKKQVYDK | -2.56 |
| HMRNTPQRRHAILALLSEQGEVSVDALAKRFSTSEVTIRKDLAAMESHGLLLRRYGGAVPMPQELI | -1.63 |
| HMRPEVALSSRELEILEALATGKSNKELAQRLFISEATVKTHLIHIYQKLGVDTRTAAVTVARERKL | -2.3 |
| HMRPEVTEHLKTADAILHGGDINRQSIVDELRQYAPLYIVRGNNDKDWAEAIPHDLTVTLGGVTFFMVHNR | -0.0851 |
| HMRPFAMNLLEKHKADIEVWLKHPNMTNTQIKRLLEELGTSVSVSSIDRFISTSFPKLPKHT | -0.121 |
| HMRPIWVQLADDFRHRIVSGQWPPGSKIPSVRELAAETGVNPNTVQRALGALDGEGLTATERTAGRFVTT | -0.266 |
| HMRPKVADIDYFDGKTFTIEDGSKHSITTSEAKKIYFYLVKNGYVDDESHVTDAYRSAATSGTLA | 0.0416 |
| HMRPQELSSLNTNQMRLYNSLPEAFITAEAKDIADKLRYSERSLFRFLNESNLFTKTEHGSYAKKA | 0.0879 |
| HMRPQYVDLFTKLSAEEAGAITSKLKELKVEYQLADNGSTIKVPQKDAAEIRLELANEGLPA | 0.138 |
| HMRPRQDRSEETRDRILDAVVELIAERGLAGVSHRAVADRAGVSLSATSYYFGSKAELERAALEEHYRR | -0.881 |
| HMRPSGEAVNAAYRLLKGANPSGNEGDLIQRAQEVAAILPKLNRSSAAAFAKDAKANGLTQAETIALWKGS | 0.135 |
| HMRPTYRTRLEVLINNPAISGRDLDFAQSLLSYYERKGRLSAGRVKWVTTLEERYSPENLAASAAK | -0.856 |

| Sequence | soluble fraction (log2) |
| --- | --- |
| HMRQFEPVEGYNPYADKNELHGYEYWGAKFADSRSPEETAWIKQQIDDENEDRRFISEAGLA | 0.0889 |
| HMRQQQISAAIKTSVNGTVDYYVRRLPERDPRGDFLEVWDDLQKVIQAAHGIQVSHDELYEYFRRLK | -0.833 |
| HMRQQSLHSLYRDHHSWLQNWLRRQLGNTWDAADLSQDTFIKVLASSQSVAEIREPRAYLLTVGKRL | -0.294 |
| HMRQSDIAAAFRESILRSSKGFQYLHTRDFVTALRRRGIHLSEVEANSWIAREKTYFVDSALDHSENRLWI | -1.65 |
| HMRQSIHTALQLLTPREEEVLNLLVSGKSNKQVAEHFSLSSKTIERHRSSVMRKLDASSFAQLVRIAALR | -3.27 |
| HMRQYPSGVFKEEGVKAVYIHAGTPFLVIAAQYKIPLARLFEWNNLLPSTEARISQVIYLERPG | -3.92 |
| HMRRARVAGKGHFTGEDAMAVYRELEALFGETETLYLPGHRPFEAVLSKLALIGVPEKNTVPYTFAFVET | -0.392 |
| HMRREIRLTVTEEIVLMKFLLTQIPYKNRDNFKTLLNDRQIRVNGSVVTWYNHPLKPGQEVTIGWFKM | -0.264 |
| HMRRPRGVFNLVPGKRFGFITPDGGGEDVFAHLANVRAGHVAEDRNAVEYGIGRGPDGRDQAVDIVPMP | -0.329 |
| HMRRQRNPEIFDQLVNKFHFTFTQTQQLKQLIKRWHMLFPGKSLKSAIQGYKSAKEILTYINDSLDVVE | 0.213 |
| HMRRRTLRQGATGSDVHAVQRLLNVDGAGLRTDGIFGPATERAVIAYQRKHGLAVDGVVGRETWTALLG | -0.743 |
| HMRRSDLVTQGDEILKRLQWNQQQAKDFLNQHLKASSRQQLTDEQLLNFNMLLEEQLVKSME | 0.426 |
| HMRRSLIGPTVRERRRALGITQSRLAAEVGISASYLNLIEGDKRNIGGALLQRIAGALGLALD | -3.08 |
| HMRRTVIVTAAHAEIRERPDANAPLVFSAEQKVSLDYQETAPGGWVKVRHRDGQSGYVRTNQI | -0.716 |
| HMRRVGTALNRSHKVSYGESIQSIAARYNVNPTMLREYNRLKPEATITPGQILRIPPATIAS | -0.481 |
| HMRRVRRTRRLLQDGLLGLMQHKAVADISVKELAEAADVARATVYVHFKDPADVLHQLEQGLY | 0.091 |
| HMRSDHVFTSHLARRDKYISELESLSDSARDDHIQTIKEEDEYLLKYRRTRNLFGIPLNDEMKQFEPFNY | -0.228 |
